Test results taken from patent US20240294646A1.

What follows are substances tested against FcγRIIb (UniProt P31994) (assay: SPR (Protocol 1); IIb-Fold over IIaR-Fold).
FcγRIIb, sequence (P31994 43-217 limits assumed): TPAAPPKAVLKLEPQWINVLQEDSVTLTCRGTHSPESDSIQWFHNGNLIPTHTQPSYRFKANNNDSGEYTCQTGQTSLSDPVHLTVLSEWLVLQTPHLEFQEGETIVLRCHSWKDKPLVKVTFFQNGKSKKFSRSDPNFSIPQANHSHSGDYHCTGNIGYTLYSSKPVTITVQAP

| Substance | IIb/IIaR Selectivity |
| --- | --- |
| variant 16570, one-armed trastuzumab antibody (Scaffold 2), chain B E269K_L234F | 3.35 |
| variant 16492, one-armed trastuzumab antibody (Scaffold 2), chain A E269K, chain B G236N | 1.83 |
| variant 16571, one-armed trastuzumab antibody (Scaffold 2), chain A E269K, chain B L234F | 0.97 |
| variant 16549, one-armed trastuzumab antibody (Scaffold 2), chain B E269K_L234D | 1.83 |
| variant 16491, one-armed trastuzumab antibody (Scaffold 2), chain B E269K_G236N | 2.48 |
| variant 16488, one-armed trastuzumab antibody (Scaffold 2), chain B E269K_G236D | 0.91 |
| variant 16576, one-armed trastuzumab antibody (Scaffold 2), chain B E269K_A327G_A330S_P331S_L234F_H268Q_K274Q | 1.89 |
| variant 16489, one-armed trastuzumab antibody (Scaffold 2), chain A E269K, chain B G236D | 2.1 |
| variant 16532, one-armed trastuzumab antibody (Scaffold 2), chain A E269K, chain B S267I | 1.84 |
| variant 16577, one-armed trastuzumab antibody (Scaffold 2), chain A E269K, chain B A327G_A330S_P331S_L234F_H268Q_K274Q | 1.26 |

The substances below were run against FcγRIIb (UniProt P31994) (assay: SPR (Protocol 1), one-armed antibody captured on HER2, receptor as analyte; fold over wild-type).

| Substance | IIb-Fold (fold affinity over wild-type) |
| --- | --- |
| variant 16570, one-armed trastuzumab antibody (Scaffold 2), chain B E269K_L234F | 0.37 fold |
| variant 16492, one-armed trastuzumab antibody (Scaffold 2), chain A E269K, chain B G236N | 0.13 fold |
| variant 16571, one-armed trastuzumab antibody (Scaffold 2), chain A E269K, chain B L234F | 0.4 fold |
| variant 16549, one-armed trastuzumab antibody (Scaffold 2), chain B E269K_L234D | 0.35 fold |
| variant 16491, one-armed trastuzumab antibody (Scaffold 2), chain B E269K_G236N | 0.24 fold |
| variant 16488, one-armed trastuzumab antibody (Scaffold 2), chain B E269K_G236D | 0.16 fold |
| variant 16576, one-armed trastuzumab antibody (Scaffold 2), chain B E269K_A327G_A330S_P331S_L234F_H268Q_K274Q | 0.21 fold |
| variant 16489, one-armed trastuzumab antibody (Scaffold 2), chain A E269K, chain B G236D | 0.85 fold |
| variant 16532, one-armed trastuzumab antibody (Scaffold 2), chain A E269K, chain B S267I | 0.95 fold |
| variant 16577, one-armed trastuzumab antibody (Scaffold 2), chain A E269K, chain B A327G_A330S_P331S_L234F_H268Q_K274Q | 1.03 fold |

The substances below were run against FcγRIIaR (UniProt P12318) in the same assay as above.
FcγRIIaR, sequence (P12318 34-217): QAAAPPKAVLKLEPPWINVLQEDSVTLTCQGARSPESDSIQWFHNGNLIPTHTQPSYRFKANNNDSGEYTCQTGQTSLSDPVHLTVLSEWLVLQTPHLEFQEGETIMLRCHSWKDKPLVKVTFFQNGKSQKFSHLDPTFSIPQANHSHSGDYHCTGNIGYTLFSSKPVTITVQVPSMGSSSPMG

| Substance | IIaR-Fold (fold affinity over wild-type) |
| --- | --- |
| variant 16570, one-armed trastuzumab antibody (Scaffold 2), chain B E269K_L234F | 0.11 fold |
| variant 16492, one-armed trastuzumab antibody (Scaffold 2), chain A E269K, chain B G236N | 0.07 fold |
| variant 16571, one-armed trastuzumab antibody (Scaffold 2), chain A E269K, chain B L234F | 0.42 fold |
| variant 16549, one-armed trastuzumab antibody (Scaffold 2), chain B E269K_L234D | 0.19 fold |
| variant 16491, one-armed trastuzumab antibody (Scaffold 2), chain B E269K_G236N | 0.1 fold |
| variant 16488, one-armed trastuzumab antibody (Scaffold 2), chain B E269K_G236D | 0.17 fold |
| variant 16576, one-armed trastuzumab antibody (Scaffold 2), chain B E269K_A327G_A330S_P331S_L234F_H268Q_K274Q | 0.11 fold |
| variant 16489, one-armed trastuzumab antibody (Scaffold 2), chain A E269K, chain B G236D | 0.41 fold |
| variant 16532, one-armed trastuzumab antibody (Scaffold 2), chain A E269K, chain B S267I | 0.51 fold |
| variant 16577, one-armed trastuzumab antibody (Scaffold 2), chain A E269K, chain B A327G_A330S_P331S_L234F_H268Q_K274Q | 0.82 fold |

What follows are substances tested against Soluble FcγRIIaR extracellular domain with C-terminal 10×His tag (UniProt P12318) (assay: SPR (Biacore 4000), antibody captured on immobilised HER2, soluble receptor as analyte).
Soluble FcγRIIaR extracellular domain with C-terminal 10×His tag, sequence (P12318 other isoform, or with tags, fused parts or gaps): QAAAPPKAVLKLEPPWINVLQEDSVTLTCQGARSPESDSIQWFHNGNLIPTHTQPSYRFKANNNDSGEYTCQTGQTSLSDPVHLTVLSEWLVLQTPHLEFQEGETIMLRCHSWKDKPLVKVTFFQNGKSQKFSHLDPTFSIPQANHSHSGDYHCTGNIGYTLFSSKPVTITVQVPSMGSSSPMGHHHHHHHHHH

| Substance | Kd |
| --- | --- |
| Variant 26718 (A_D270Y_strat2), one-armed trastuzumab antibody | 69 nM |
| Variant 26702 (A_E269T_strat2), one-armed trastuzumab antibody | 64 nM |
| Variant 26712 (A_D270A_strat2), one-armed trastuzumab antibody | 80 nM |
| Variant 26706 (A_E269D_strat2), one-armed trastuzumab antibody | 61 nM |
| Variant 26708 (A_E269K_strat2), one-armed trastuzumab antibody | 70 nM |
| Variant 26720 (A_D270S_strat2), one-armed trastuzumab antibody | 79 nM |
| Variant 26716 (A_D270F_strat2), one-armed trastuzumab antibody | 48 nM |
| Variant 26705 (A_E269N_strat2), one-armed trastuzumab antibody | 83 nM |
| Variant 26713 (A_D270V_strat2), one-armed trastuzumab antibody | 89 nM |
| Variant 26703 (A_E269S_strat2), one-armed trastuzumab antibody | 60 nM |

What follows are substances tested against Soluble FcγRIIb extracellular domain with C-terminal 10×His tag (UniProt P31994) in the same assay as above.
Soluble FcγRIIb extracellular domain with C-terminal 10×His tag, sequence (P31994 other isoform, or with tags, fused parts or gaps): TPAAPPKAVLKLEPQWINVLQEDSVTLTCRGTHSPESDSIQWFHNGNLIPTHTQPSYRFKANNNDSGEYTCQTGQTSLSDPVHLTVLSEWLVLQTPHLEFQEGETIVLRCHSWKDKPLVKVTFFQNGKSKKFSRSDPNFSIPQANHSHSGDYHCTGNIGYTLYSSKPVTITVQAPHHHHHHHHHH

| Substance | Kd |
| --- | --- |
| Variant 26718 (A_D270Y_strat2), one-armed trastuzumab antibody | 26 nM |
| Variant 26702 (A_E269T_strat2), one-armed trastuzumab antibody | 26 nM |
| Variant 26712 (A_D270A_strat2), one-armed trastuzumab antibody | 29 nM |
| Variant 26706 (A_E269D_strat2), one-armed trastuzumab antibody | 20 nM |
| Variant 26708 (A_E269K_strat2), one-armed trastuzumab antibody | 22 nM |
| Variant 26720 (A_D270S_strat2), one-armed trastuzumab antibody | 29 nM |
| Variant 26716 (A_D270F_strat2), one-armed trastuzumab antibody | 17 nM |
| Variant 26705 (A_E269N_strat2), one-armed trastuzumab antibody | 26 nM |
| Variant 26713 (A_D270V_strat2), one-armed trastuzumab antibody | 41 nM |
| Variant 26703 (A_E269S_strat2), one-armed trastuzumab antibody | 24 nM |

What follows are substances tested against FcγRIIaR, soluble extracellular domain (UniProt P12318) (assay: SPR (Biacore 4000, Protocol 2): antibody captured on immobilised HER2, soluble receptor as analyte).
FcγRIIaR, soluble extracellular domain, sequence (P12318 34-217): as the sequence (P12318 34-217) above

| Substance | Kd |
| --- | --- |
| Variant 26736 (A_P271T_strat2), one-armed trastuzumab antibody with heterodimeric IgG1 Fc | 120 nM |
| Variant 26722 (A_D270N_strat2), one-armed trastuzumab antibody with heterodimeric IgG1 Fc | 77 nM |
| Variant 26728 (A_P271G_strat2), one-armed trastuzumab antibody with heterodimeric IgG1 Fc | 64 nM |
| Variant 26738 (A_P271Q_strat2), one-armed trastuzumab antibody with heterodimeric IgG1 Fc | 77 nM |
| Variant 26726 (A_D270H_strat2), one-armed trastuzumab antibody with heterodimeric IgG1 Fc | 74 nM |
| Variant 26739 (A_P271N_strat2), one-armed trastuzumab antibody with heterodimeric IgG1 Fc | 90 nM |
| Variant 26737 (A_P271S_strat2), one-armed trastuzumab antibody with heterodimeric IgG1 Fc | 90 nM |
| Variant 26735 (A_P271Y_strat2), one-armed trastuzumab antibody with heterodimeric IgG1 Fc | 110 nM |
| Variant 26730 (A_P271V_strat2), one-armed trastuzumab antibody with heterodimeric IgG1 Fc | 85 nM |
| Variant 26731 (A_P271L_strat2), one-armed trastuzumab antibody with heterodimeric IgG1 Fc | 68 nM |
| Variant 26723 (A_D270E_strat2), one-armed trastuzumab antibody with heterodimeric IgG1 Fc | 42 nM |
| Variant 26727 (A_D270P_strat2), one-armed trastuzumab antibody with heterodimeric IgG1 Fc | 180 nM |
| Variant 26734 (A_P271W_strat2), one-armed trastuzumab antibody with heterodimeric IgG1 Fc | 72 nM |
| Variant 26733 (A_P271F_strat2), one-armed trastuzumab antibody with heterodimeric IgG1 Fc | 87 nM |
| Variant 26729 (A_P271A_strat2), one-armed trastuzumab antibody with heterodimeric IgG1 Fc | 93 nM |
| Variant 26721 (A_D270Q_strat2), one-armed trastuzumab antibody with heterodimeric IgG1 Fc | 87 nM |
| Variant 26732 (A_P271I_strat2), one-armed trastuzumab antibody with heterodimeric IgG1 Fc | 70 nM |

The substances below were run against FcγRIIb, soluble extracellular domain (UniProt P31994) in the same assay as above.
FcγRIIb, soluble extracellular domain, sequence (P31994 43-217): as the sequence (P31994 43-217 limits assumed) above

| Substance | Kd |
| --- | --- |
| Variant 26736 (A_P271T_strat2), one-armed trastuzumab antibody with heterodimeric IgG1 Fc | 47 nM |
| Variant 26722 (A_D270N_strat2), one-armed trastuzumab antibody with heterodimeric IgG1 Fc | 21 nM |
| Variant 26728 (A_P271G_strat2), one-armed trastuzumab antibody with heterodimeric IgG1 Fc | 22 nM |
| Variant 26738 (A_P271Q_strat2), one-armed trastuzumab antibody with heterodimeric IgG1 Fc | 26 nM |
| Variant 26726 (A_D270H_strat2), one-armed trastuzumab antibody with heterodimeric IgG1 Fc | 23 nM |
| Variant 26739 (A_P271N_strat2), one-armed trastuzumab antibody with heterodimeric IgG1 Fc | 28 nM |
| Variant 26737 (A_P271S_strat2), one-armed trastuzumab antibody with heterodimeric IgG1 Fc | 36 nM |
| Variant 26735 (A_P271Y_strat2), one-armed trastuzumab antibody with heterodimeric IgG1 Fc | 35 nM |
| Variant 26730 (A_P271V_strat2), one-armed trastuzumab antibody with heterodimeric IgG1 Fc | 27 nM |
| Variant 26731 (A_P271L_strat2), one-armed trastuzumab antibody with heterodimeric IgG1 Fc | 22 nM |
| Variant 26723 (A_D270E_strat2), one-armed trastuzumab antibody with heterodimeric IgG1 Fc | 13 nM |
| Variant 26727 (A_D270P_strat2), one-armed trastuzumab antibody with heterodimeric IgG1 Fc | 88 nM |
| Variant 26734 (A_P271W_strat2), one-armed trastuzumab antibody with heterodimeric IgG1 Fc | 28 nM |
| Variant 26733 (A_P271F_strat2), one-armed trastuzumab antibody with heterodimeric IgG1 Fc | 31 nM |
| Variant 26729 (A_P271A_strat2), one-armed trastuzumab antibody with heterodimeric IgG1 Fc | 34 nM |
| Variant 26721 (A_D270Q_strat2), one-armed trastuzumab antibody with heterodimeric IgG1 Fc | 28 nM |
| Variant 26724 (A_D270R_strat2), one-armed trastuzumab antibody with heterodimeric IgG1 Fc | 89 nM |
| Variant 26740 (A_P271D_strat2), one-armed trastuzumab antibody with heterodimeric IgG1 Fc | 29 nM |
